Values belong to the substance of their own block, whether it stands above or below them.
Experiments:
[1] = molecular target: ΔN90-PGAM5, His6 tag not cleaved (for analytical SEC) (human) (UniProt Q96HS1); assay: SEC; Superdex Increase s200 10/300 GL, 50 mM Tris pH 7.5, 200 mM NaCl; His-tagged proteins at several concentrations
[2] = molecular target: ΔN54-PGAM5, His6 tag cleaved (human) (UniProt Q96HS1); assay: crystal structure; ΔN54-PGAM5-phosphate complex; sitting drop, 20°C, 18% PEG 3350, 0.1 M MES pH 5.7
[3] = molecular target: ΔN90-PGAM5 (residues 90–289), His6 tag cleaved (human) (UniProt Q96HS1); assay: AUC; sedimentation equilibrium, dimer to monomers (self-association model, global fit); 0.7, 0.46 and 0.35 mg/ml in 50 mM HEPES pH 7.5, 300 mM NaCl, 0.5 mM TCEP; 12,000 and 18,000 rpm
[4] = molecular target: ΔN90-PGAM5 (residues 90–289), His6 tag cleaved (human) (UniProt Q96HS1); assay: crystal structure; ΔN90-PGAM5 apo and phosphate complex; sitting drop, 20°C, PEG 3350 and 5000 MME 12-20%, 0.1 M HEPES pH 7.5
[5] = molecular target: ΔN90-PGAM5 (residues 90–289), His6 tag cleaved (human) (UniProt Q96HS1); assay: AUC; sedimentation velocity, 4°C, 45,000 rpm, protein 50-60 μM in 50 mM Tris pH 7.5, 300 mM NaCl, 0.5 mM TCEP
[6] = molecular target: PGAM5 residues 81–289 (human) (UniProt Q96HS1); assay: as above

stoichiometry N [1]: 2
Substance: ΔN90-PGAM5, His6 tag not cleaved (for analytical SEC) (from UniProt Q96HS1 90-289) (domain or fragment)

stoichiometry N [2]: 12
Substance: ΔN54-PGAM5, His6 tag cleaved (from UniProt Q96HS1 54-289) (domain or fragment)

Kd [3]: 480 nM
stoichiometry N [4]: 2
stoichiometry N [5]: 2
Substance: ΔN90-PGAM5 (residues 90–289), His6 tag cleaved (from UniProt Q96HS1 90-289) (domain or fragment)

stoichiometry N [6]: 2
Substance: PGAM5 residues 81–289 (from UniProt Q96HS1 81-289) (domain or fragment)
